Test results reported in EP4806921A1 (Daan Biotherapeutics, Inc., dated 2026).

T1: CEACAM5 protein (Acrobiosystems) (UniProt P06731 35-685)
T1 construct: also called CEACAM5 full-length protein
T1 sequence (looked up): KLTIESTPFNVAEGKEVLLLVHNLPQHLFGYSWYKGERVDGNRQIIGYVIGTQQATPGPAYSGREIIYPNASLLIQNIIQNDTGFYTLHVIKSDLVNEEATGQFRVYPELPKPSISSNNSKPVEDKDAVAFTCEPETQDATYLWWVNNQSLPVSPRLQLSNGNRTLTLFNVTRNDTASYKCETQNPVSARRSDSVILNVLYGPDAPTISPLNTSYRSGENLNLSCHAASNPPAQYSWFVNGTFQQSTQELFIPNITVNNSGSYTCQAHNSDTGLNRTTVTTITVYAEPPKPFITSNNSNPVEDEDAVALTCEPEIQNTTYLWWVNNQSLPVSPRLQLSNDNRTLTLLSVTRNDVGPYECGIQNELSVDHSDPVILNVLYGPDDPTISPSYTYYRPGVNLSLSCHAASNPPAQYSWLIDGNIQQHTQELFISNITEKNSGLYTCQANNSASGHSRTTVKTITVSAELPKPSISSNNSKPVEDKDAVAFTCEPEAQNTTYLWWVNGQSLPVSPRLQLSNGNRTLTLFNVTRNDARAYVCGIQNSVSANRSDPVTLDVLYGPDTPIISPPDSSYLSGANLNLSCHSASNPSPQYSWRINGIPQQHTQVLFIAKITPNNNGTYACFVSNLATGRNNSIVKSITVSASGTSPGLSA

B1: humanized 94E12E2-04 antibody (antibody, V domains shown)
VH: EVQLVESGGGLVQPGGSLRLSCAASGFNIKDNYMHWVRQAPGKGLEWIGWIDPENGDTEYDPKFQGRATMSADTSKNTAYLQMNSLRAEDTAVYYCNIITMATPYPMDYWGQGTLVTVSS
VL: DIQLTQSPSSLSASVGDRVTITCSASTSVIYMHWFQQKPGKAPKLWIYSTSNLASGVPSRFSGSGSGTDYTLTISSLQPEDFATYYCQQRSSYPLTFGQGTKVEIKR
B2: humanized 94E12E2-06 antibody (antibody, V domains shown)
VH: QVQLVQSGAEVKKPGASVKVSCKASGFNIKDNYMHWVRQAPGQGLEWIGWIDPENGDTEYDPKFQGRATMTADTSISTAYMELSRLRSDDTAVYYCNIITMATPYPMDYWGQGTLVTVSS
VL: EIVLTQSPDFQSVTPKEKVTITCSASTSVIYMHWFQQKPDQSPKLWIYSTSNLASGVPSRFSGSGSGTDYTLTINSLEAEDAATYYCQQRSSYPLTFGQGTKLEIKR

Target: T1, CEACAM5 protein (Acrobiosystems)
Assay: ELISA on coated CEACAM5 protein (Acrobiosystems), antibody 200 nM to 0.0004 nM

Row | Binder | binding result
1 | B1 | binds
2 | B2 | binds
